The values that follow are results of earlier work, collected in article PMC8557391.

What is called Kd is the constant that tells how readily two partners part at equilibrium.

This data set concerns the target Keap1 (Homo sapiens) (UniProt Q14145). As to the kind of experiment: FP.
Chain of UniProt Q14145 (Q14145 whole entry): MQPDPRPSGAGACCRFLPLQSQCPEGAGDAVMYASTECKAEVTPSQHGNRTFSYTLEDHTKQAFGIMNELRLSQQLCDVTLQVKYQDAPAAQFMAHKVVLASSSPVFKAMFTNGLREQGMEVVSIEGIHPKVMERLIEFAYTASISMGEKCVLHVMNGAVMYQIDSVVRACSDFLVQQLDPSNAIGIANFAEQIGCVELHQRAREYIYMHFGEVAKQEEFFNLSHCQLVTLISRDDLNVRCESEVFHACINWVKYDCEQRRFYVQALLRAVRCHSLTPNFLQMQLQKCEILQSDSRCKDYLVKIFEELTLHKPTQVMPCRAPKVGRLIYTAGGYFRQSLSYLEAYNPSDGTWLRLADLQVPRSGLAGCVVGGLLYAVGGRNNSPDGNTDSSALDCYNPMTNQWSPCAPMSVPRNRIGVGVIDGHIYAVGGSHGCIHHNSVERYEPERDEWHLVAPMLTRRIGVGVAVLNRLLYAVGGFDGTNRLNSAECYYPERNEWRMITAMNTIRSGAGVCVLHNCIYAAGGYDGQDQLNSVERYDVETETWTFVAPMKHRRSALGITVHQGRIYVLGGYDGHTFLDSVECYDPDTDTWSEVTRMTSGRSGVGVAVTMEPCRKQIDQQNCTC

Nrf2 9mer peptide (from UniProt Q16236): the Kd was 0.054 µM.

Turning to “Nrf2 10mer peptide (from UniProt Q16236)”, the Kd was 0.051 µM.
